We go through 21 molecules from EP4793288A1 (Imbiologics Corp., dated 2025).

In one test the target is B2M (UniProt P61769 21-119). In words: ELISA.
The target of test [1] is T1, HLA-G expressed on the cell surface (human, UniProt P17693 25-338). Nature of the test: cell-based or functional assay.
The target in test [2] is T1, HLA-G expressed on the cell surface. Nature of the test: flow cytometry on JEG-3 and SCH cells naturally expressing HLA-G, anti-human IgG PE.
Test [3] deals with T2, Recombinant HLA-G antigen (human, UniProt P17693 25-308, limits assumed).
T2 construct: also called recombinant HLA-G protein
In words: BLI (Octet), antibody on anti-human IgG Fc capture biosensor, HLA-G antigen 100 to 1.56 nM.

Positions count from the first letter of the chain named. Bounds are passed on as bounds.

B2M, sequence (P61769 21-119 limits assumed): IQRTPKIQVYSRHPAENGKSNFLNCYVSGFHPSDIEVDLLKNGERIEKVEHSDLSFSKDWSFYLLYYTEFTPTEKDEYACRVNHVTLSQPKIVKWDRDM

B1: 2F1CDRH3#10 (antibody, human IgG1, kappa, V domains shown)
VH: EVQLVESGGGLVQPGGSLRLSCAASGFTFSSYAMSWVRQAPGKGLEWVSRISGSGGYKYYADSVKGRFTISRDNSKNTLYLQMNSLRAEDTAVYYCAKEGTSSYRGWMDVWGQGTLVTVSS
VL: IQMTQSPSSLSASVGDRVTITCRASQSISNYLNWYQQKPGKAPKLLIYATSTLQSGVPSRFSGSGSGTDFTLTISSLQPEDFATYYCQQSYTTPWTFGQGTKVEIKR
B1: in the test with B2M, the binding result was “no binding”. In addition, the “EC50 (nM), ADCC reporter assay on SKOV-3/HLA-G cells” value in test [1] came to 0.08 nM. Besides, the “fold HLA-G binding activity against the positive control antibody” value (from here on “fold HLA-G binding activity”) in test [2] was at least 3 fold.

B2: Afucosylated 2F1CDRH3#17 (antibody, human IgG1, kappa, V domains shown)
VH: B1 VH with S31D, S54T, G56S, S103T
VL: DIQMTQSPSSLSASVGDRVTITCRASQSISNYLNWYQQKPGKAPKLLIYATSRLQSGVPSRFSGSGSGTDFTLTISSLQPEDFATYYCQQSYTTPWTFGQGTKVEIKR
modifications: afucosylated glycan (antibody produced with 400 µM 2-deoxy-2-fluoro-L-fucose in the medium)
In the case of B2, the “EC50 (nM), ADCC reporter assay on SKOV-3/HLA-G cells, afucosylated antibody” value (shortened to “EC50 (nM) … afucosylated antibody”) in test [1] is 0.01 nM.

B3: Afucosylated 2F1CDRH3#16 (antibody, human IgG1, kappa, V domains shown)
VH: B1 VH with S31D, G53S, G56S, K58T, S103K
VL: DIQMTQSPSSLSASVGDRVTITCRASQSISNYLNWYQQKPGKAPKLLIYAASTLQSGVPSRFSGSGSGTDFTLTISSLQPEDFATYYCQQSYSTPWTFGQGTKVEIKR
modifications: afucosylated glycan (antibody produced with 400 µM 2-deoxy-2-fluoro-L-fucose in the medium)
Take B3: the “EC50 (nM) … afucosylated antibody” value in test [1] was determined as 0.02 nM.

B4: Afucosylated 2F1CDRH3#26 (antibody, human IgG1, kappa, V domains shown)
VH: B1 VH with G56S, K58T, T101A
VL: B2 VL with Y92H, T93S
modifications: afucosylated glycan (antibody produced with 400 µM 2-deoxy-2-fluoro-L-fucose in the medium)
B4: the “EC50 (nM) … afucosylated antibody” value in test [1] was 0.02 nM.

B5: Afucosylated 2F1HS6LS#46 (antibody, human IgG1, kappa, V domains shown)
VH: B1 VH with S31D, G53Q, G56S, K58T
VL: B2 VL with Y32W, T93S
modifications: afucosylated glycan (antibody produced with 400 µM 2-deoxy-2-fluoro-L-fucose in the medium)
Regarding B5, in test [1], the “EC50 (nM) … afucosylated antibody” value was 0.02 nM.

B6: Afucosylated 2F1HS6LS#38 (antibody, V domains shown)
VH: B1 VH with S31D, G53Q, G56S, K58T
VL: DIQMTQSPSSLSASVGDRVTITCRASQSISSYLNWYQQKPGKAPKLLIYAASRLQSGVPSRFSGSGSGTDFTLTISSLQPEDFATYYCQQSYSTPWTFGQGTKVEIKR
modifications: afucosylated glycan (antibody produced with 400 µM 2-deoxy-2-fluoro-L-fucose in the medium)
For B6, the “EC50 (nM) … afucosylated antibody” value in test [1] stood at 0.07 nM.

B7: 2F1HS6LS#38 (antibody, V domains shown)
VH: B1 VH with S31D, G53Q, G56S, K58T
VL: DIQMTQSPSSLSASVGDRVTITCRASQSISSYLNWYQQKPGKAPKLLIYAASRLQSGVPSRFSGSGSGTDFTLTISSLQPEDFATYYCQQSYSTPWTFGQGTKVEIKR
As for B7, the binding result with B2M is given as “no binding”. Also, in test [1], the “EC50 (nM), ADCC reporter assay on SKOV-3/HLA-G cells” value came out at 0.93 nM. In test [2], the “fold HLA-G binding activity” value was at least 3 fold.

B8: Afucosylated 2F1CDRH3#10 (antibody, human IgG1, kappa, V domains shown)
VH: B1 VH
VL: B1 VL
modifications: afucosylated glycan (antibody produced with 400 µM 2-deoxy-2-fluoro-L-fucose in the medium)
Turning to B8, in test [1], the “EC50 (nM) … afucosylated antibody” value stood at 0.01 nM.

B9: 2F1_LS#26 (antibody, human IgG1, kappa, V domains shown)
VH: B1 VH with K58I
VL: B2 VL with T93S, T94F
Turning to B9, the binding result with B2M is “no binding”. For the same molecule, in test [3], the Kd is 0.698 nM and the koff stood at 2.82e-05 s⁻¹.

B10: 2F1CDRH3#17 (antibody, human IgG1, kappa, V domains shown)
VH: B1 VH with S31D, S54T, G56S, S103T
VL: B2 VL
For B10, the binding result in the test with B2M was “no binding”. The “EC50 (nM), ADCC reporter assay on SKOV-3/HLA-G cells” value in test [1] amounted to 0.07 nM. The “fold HLA-G binding activity” value in test [2] was at least 3 fold.

B11: 2F1_LS#17 (antibody, human IgG1, kappa, V domains shown)
VH: B1 VH with K58I
VL: B2 VL with T51A, G57D, T93S
Turning to B11, in the test with B2M, the binding result is “no binding”. In addition, in test [3], the Kd is 0.689 nM and the koff amounted to 0.000138 s⁻¹.

B12: 2F1_LS#39 (antibody, human IgG1, kappa, V domains shown)
VH: B1 VH with K58I
VL: B2 VL with N31R, R53N, Q55H, T94S
As to B12, the binding result with B2M is listed as “no binding”. Further, in test [3], the Kd came to 0.567 nM and the dissociation rate constant (koff) came out at 0.000106 s⁻¹.

B13: 2F1HS6LS#46 (antibody, human IgG1, kappa, V domains shown)
VH: B1 VH with S31D, G53Q, G56S, K58T
VL: B2 VL with Y32W, T93S
Consider B13, for which the binding result with B2M is “no binding”. For the same molecule, in test [1], the “EC50 (nM), ADCC reporter assay on SKOV-3/HLA-G cells” value amounted to 0.15 nM. The “fold HLA-G binding activity” value in test [2] is at least 3 fold.

B14: 2F1CDRH3#16 (antibody, human IgG1, kappa, V domains shown)
VH: B1 VH with S31D, G53S, G56S, K58T, S103K
VL: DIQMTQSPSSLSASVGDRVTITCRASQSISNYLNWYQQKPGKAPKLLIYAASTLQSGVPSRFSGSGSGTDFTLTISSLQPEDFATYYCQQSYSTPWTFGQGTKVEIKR
For B14, the binding result with B2M is reported as “no binding”. For the same molecule, the “EC50 (nM), ADCC reporter assay on SKOV-3/HLA-G cells” value in test [1] worked out at 0.17 nM. The “fold HLA-G binding activity” value in test [2] is at least 3 fold.

B15: 2F1CDRH3#26 (antibody, human IgG1, kappa, V domains shown)
VH: B1 VH with G56S, K58T, T101A
VL: B2 VL with Y92H, T93S
B15: in the test with B2M, the binding result is reported as “no binding”. Moreover, the “EC50 (nM), ADCC reporter assay on SKOV-3/HLA-G cells” value in test [1] came to 0.1 nM. Further, in test [2], the “fold HLA-G binding activity” value was at least 3 fold.

B16: 2F1 (antibody, human IgG1, kappa, V domains shown)
VH: B1 VH with K58I
VL: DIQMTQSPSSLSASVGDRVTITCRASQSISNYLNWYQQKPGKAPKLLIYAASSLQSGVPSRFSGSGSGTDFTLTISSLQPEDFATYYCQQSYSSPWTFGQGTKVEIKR
notes: produced in Expi293F cells
Consider B16, for which the binding result with B2M is “no binding”. Besides, in test [3], the Kd is 0.523 nM and the koff worked out at 0.00013 s⁻¹.

B17: 2F1_LS#24 (antibody, human IgG1, kappa, V domains shown)
VH: B1 VH with K58I
VL: B2 VL with Y32W, T51A, T94S
For the molecule B17, in the test with B2M, the binding result is recorded as “no binding”. Besides, in test [3], the dissociation constant Kd was 0.553 nM and the koff was found to be 0.00012 s⁻¹.

B18: T22A4 (antibody, human IgG1, kappa, V domains shown)
VH: EVQLVESGGNWVQPGGSLRLSCAASGFSFRSYAMSWVRQAPGKGLEWVSSISGSGNSELYAGSVKGRFTISRDNSKNTLSLQLHSLRAEDTAMYYCAKFSAAVGFLPDYFDSWGQGTLVTVSS
VL: ELTLTQSPSSLSASVGDRVTITCQASHDISKYLNWYQQKSGKAPKLLIYDASNLETGVPSRFSGSGSGTDFTLTISSLQPEDFATYYCQQSYRTPLTFGGGTKLEIKR
In the case of B18, the binding result with B2M was “no binding”.

B19: T23D5 (antibody, human IgG1, kappa, V domains shown)
VH: QVQLQESGPGLVKPSETLSLTCTVSGGSIDRSSHYWGWIRQPPGKGLEWLGSIYYSGITYYNPSLKSRVTISVDTSRNQFSLTLSSVTAADTAVYYCARHGSYDSWAGRYKWDRFDPWGQGTPVTVSS
VL: B18 VL with T3Q, L4M, R93S, L104V
On to B19, for which, in the test with B2M, the binding result is listed as “no binding”.

B20: Afucosylated positive control antibody (antibody, human IgG1, kappa, V domains shown)
VH: QLQLQESGPGLVKPSETLSLTCTVSGGSISSSSTYWSWIRQPPGKGLEWIGGIAYSGSTYYNPSLKSRVTISVDTSKNQFSLKLSSVTAADTAVYYCARGVRRAVPEDYWGQGTLVTVSS
VL: EIVLTQSPGTLSLSPGERATLSCQASQAVSSNYLAWYQQKPGQAPRLLIYGASSRATGIPDRFSGSGSGTDFTLTISRLEPEDFAVYYCQQVVHSPYTFGGGTKVEIKR
modifications: afucosylated glycan
Regarding B20, in test [1], the “EC50 (nM) … afucosylated antibody” value came out at 0.13 nM.

B21: Positive control antibody (antibody, human IgG1, kappa, V domains shown)
VH: B20 VH
VL: B20 VL
In the case of B21, the “EC50 (nM), ADCC reporter assay on SKOV-3/HLA-G cells” value in test [1] was found to be 1.59 nM. In test [3], the Kd turned out to be 1.36 nM and the koff came out at 0.000157 s⁻¹.
